From patent publication US8828676B2, “Methods for differentiating plasma-derived protein from recombinant protein in a sample” (Baxter International Inc., priority 2007, dated 2014) come the findings set out here.

Test [1] deals with binding of SNA to plasma VWF (Sambucus nigra, UniProt Q41358). The settings on record: for Inhibition of binding of SNA to plasma VWF: plasma VWF:Ag 5 mU/mL.
The target of test [2] is T1, Sambucus nigra agglutinin (SNA) (Sambucus nigra, UniProt Q41358). The settings on record: plasma pool 2.88-0.18 mU VWF:Ag/mL; rVWF 311-19 mU/mL.
Test [3] deals with Maackia amurensis agglutinin (MAA). The test is described as follows: MAA binding of plasma VWF and rVWF after neuraminidase treatment. The settings on record: for Binding to MAL after addition of neuraminidase: neuraminidase 1-20 mU/mL. From the text:
In order to confirm that the recombinant protein did express sialic acid moieties, but in a different configuration than the plasma derived sialic acid, a binding assay that measures binding of protein to α2,3-linked neuraminic acid is used to detect the recombinantly expressed α2,3-linked neuraminic acid on the recombinant protein. The lectin, Maackia amurensis agglutinin (MAA), which binds α2,3-linked neuraminic acid, was used to determine if desialylation of rVWF occurred in the presence of neuraminidase.
Anti-vWF plates were prepared as above. Both the human plasma pool and the rVWF preparation were diluted to obtain VWF:Ag concentrations of 5 mU/mL and 2.5 mU/mL. 100 μL/well of the sample dilutions were loaded to the coated, periodate-oxidized plates and incubated for 60 minutes at RT and washed afterwards. The neuraminidase digest was then carried out on the plate. Neuraminidase (Sigma) was used at the concentrations of 0, 1, 5, 10 and 20 mU/mL. Afterwards, the plates were washed and incubated with the biotinylated MAA (Vector, 1 μg/mL) for 60 minutes at RT. The incubation was terminated by washing, after which the plates were incubated 30 minutes at RT with streptavidin peroxidase (DakoCytomation, 1/4000). After a final washing step, the bound peroxidase was measured as previously described.

The target of test [4] is T1, Sambucus nigra agglutinin (SNA). The note with it: for Change of SNA binding after neuraminidase treatment: neuraminidase 0-20 mU/mL, 2 hours 37° C.
Test [5] shares this target. The settings on record: mean of six tests, human plasma pool = 100%.

Read-outs that look alike come from different tables or passages of the source.

Sequence of binding of SNA to plasma VWF (Q41358 309-570 limits assumed): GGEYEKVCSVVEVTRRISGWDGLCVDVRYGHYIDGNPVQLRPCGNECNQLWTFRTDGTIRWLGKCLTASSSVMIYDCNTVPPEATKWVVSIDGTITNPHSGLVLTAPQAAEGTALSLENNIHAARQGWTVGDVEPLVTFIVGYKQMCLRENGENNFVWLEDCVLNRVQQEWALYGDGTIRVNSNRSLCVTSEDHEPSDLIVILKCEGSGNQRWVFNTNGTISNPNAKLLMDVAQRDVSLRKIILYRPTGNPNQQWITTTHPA
Sequence of binding of SNA to plasma VWF (Q41358 29-289 partner limits assumed): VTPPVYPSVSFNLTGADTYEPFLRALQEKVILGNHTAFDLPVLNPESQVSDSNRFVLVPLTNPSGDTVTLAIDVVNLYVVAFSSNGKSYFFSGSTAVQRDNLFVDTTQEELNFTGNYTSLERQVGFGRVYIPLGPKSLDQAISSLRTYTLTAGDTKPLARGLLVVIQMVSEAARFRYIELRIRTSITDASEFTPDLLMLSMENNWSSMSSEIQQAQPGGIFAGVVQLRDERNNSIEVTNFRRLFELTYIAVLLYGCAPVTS

Consider `CC(=O)N[C@H]1[C@H]([C@H](O)[C@H](O)CO)O[C@@](O[C@H]2[C@@H](O)[C@@H](CO)O[C@@H](O[C@H]3[C@H](O)[C@@H](O)C(O)O[C@@H]3CO)[C@@H]2O)(C(=O)O)C[C@@H]1O` (some centres unmarked) [3′-sialyllactose], for which the “Effect on binding of SNA to plasma VWF” value in test [1] (assay as in Example 5) was “no effect”.
With `CC(=O)N[C@H]1[C@H]([C@H](O)[C@H](O)CO)O[C@@](OC[C@H]2O[C@@H](O[C@H]3[C@H](O)[C@@H](O)[C@H](O)O[C@@H]3CO)[C@H](O)[C@@H](O)[C@H]2O)(C(=O)O)C[C@@H]1O` [6′-sialyllactose], the “Inhibition of binding of SNA to plasma VWF” value is on record as “approximately 25%” in test [1] (10 μM) and approximately 75% in test [1] (100 μM).
Turning to “CHO cell-derived rVWF: recombinantly produced von Willebrand factor from Chinese hamster ovary (CHO) cells”, the SNA binding result in test [2] is on record as “no binding”; in test [4] (without neuraminidase, VWF:Ag 5 and 2.5 mU/mL), “no binding”. The “Binding to MAL after addition of neuraminidase” value in test [3] is on record as “abolished”. The MAA lectin binding result in test [3] (without neuraminidase) is “bound”. Besides, the “Change of SNA binding after neuraminidase treatment” value in test [4] (VWF:Ag 5 and 2.5 mU/mL) is reported as “not altered”.
Consider “plasma VWF: plasma derived von Willebrand factor, measured in a human plasma pool”, for which the SNA binding result in test [2] is given as “clear dose dependent relation”. Also, the “Binding to MAL after addition of neuraminidase” value in test [3] is reported as “abolished”. For the same molecule, in test [4] (VWF:Ag 5 and 2.5 mU/mL), the “Change of SNA binding after neuraminidase treatment” value is recorded as “reduced proportional to the concentration of the neuraminidase applied”. Also, the “SNA binding relative to initially measured” value in test [4] (neuraminidase 20 mU/mL) is “less than 95%”. In addition, in test [5] (Example 7, 0 U rVWF spiked), the “SNA binding Mean (SNA binding measured)” value came out at 137.2%. Further, the “SNA binding Mean (SNA binding found)” value in test [5] (Example 8, 0 rVWF spiked) turned out to be 123.5%.
